Laboratory results published in paper PMC8682488, “c-di-GMP Homeostasis Is Critical for Heterocyst Development in Anabaena sp. PCC 7120” (Frontiers in Microbiology, 2021).

Tests used:
[1] = molecular target: T1, CdgS (Nostoc sp. PCC 7120 = FACHB-418, UniProt A0ACD7RTW6); test: HPLC, diguanylate cyclase product formation; assay type: biochemical; conditions: DGC activity (GTP to c-di-GMP); 50 μM GTP, 2 μM protein, pH 8.0, 10 mM MgCl2, 25 °C, 30 min
T1 construct: gene all2874; N-terminal REC and C-terminal GGDEF domain, two C-terminal Strep-tags (pHTwinStrep), E. coli BL21(DE3), Strep-Tactin purified
T1 sequence (A0ACD7RTW6 1-330): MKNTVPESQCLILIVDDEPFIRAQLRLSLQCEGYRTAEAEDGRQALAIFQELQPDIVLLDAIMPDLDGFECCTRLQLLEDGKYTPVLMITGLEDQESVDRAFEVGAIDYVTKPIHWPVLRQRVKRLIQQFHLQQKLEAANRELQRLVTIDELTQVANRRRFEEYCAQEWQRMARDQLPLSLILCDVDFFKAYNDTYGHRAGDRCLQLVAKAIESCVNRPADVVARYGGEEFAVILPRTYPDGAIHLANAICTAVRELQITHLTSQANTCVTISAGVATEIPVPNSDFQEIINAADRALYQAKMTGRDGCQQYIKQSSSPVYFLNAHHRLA

[2] = substrate: Nc1nc2c(ncn2[C@@H]2O[C@H](COP(=O)(O)OP(=O)(O)OP(=O)(O)O)[C@@H](O)[C@H]2O)c(=O)[nH]1; test: HPLC, diguanylate cyclase steady-state kinetics; assay type: biochemical, Nostoc sp. PCC 7120 = FACHB-418; conditions: DGC activity (GTP to c-di-GMP), GGDEF domain, 50 mM Tris-HCl pH 8.0, 10 mM MgCl2, 0.5 mM EDTA, 300 mM NaCl, 25 °C
Source text: HPLC, diguanylate cyclase steady-state kinetics on CdgSH

[3] = substrate: Nc1nc2c(ncn2[C@@H]2O[C@@H]3CO[P@](=O)(O)O[C@H]4[C@@H](O)[C@H](n5cnc6c(=O)[nH]c(N)nc65)O[C@@H]4CO[P@](=O)(O)O[C@H]3[C@H]2O)c(=O)[nH]1; test: HPLC, c-di-GMP phosphodiesterase steady-state kinetics; assay type: biochemical, Nostoc sp. PCC 7120 = FACHB-418; conditions: PDE activity (c-di-GMP to pGpG), EAL domain, 50 mM Tris-HCl pH 8.0, 10 mM MgCl2, 0.5 mM EDTA, 300 mM NaCl, 25 °C
Source text: HPLC, c-di-GMP phosphodiesterase steady-state kinetics on CdgSH

Q: Which “HPLC, diguanylate cyclase product formation” value [1] does the source give for `Nc1nc2c(ncn2[C@@H]2O[C@H](COP(=O)(O)OP(=O)(O)OP(=O)(O)O)[C@@H](O)[C@H]2O)c(=O)[nH]1` [GTP] here?
A: CdgS could convert the substrate GTP to c-di-GMP

B1: CdgSH (Nostoc sp. PCC 7120 = FACHB-418) (protein)
chain: MPGNEWEKIRHILVVQDLQGQRTIPLQEATYSIGRHTSNAIVLHSRSVSRQHAILLRVTLPETDQCSFRIIDGNFKGQGSTNGLLVNGTRCFSHNLRHGDVINFGSHQAQAKYYAISNISEKAFFASADVEDLSTFLSELSQPVNPFQTLVVDPEFEGASETALARLASFPELIPNPIIETDLEGRVTYINPAASVKFPDLRELGKQHPILKDILNIAENPKINPFVREVTVGHAVYEQSVHNLPESDLIRTYIIRDVTEQKQAEAELHQRDRLLQAVAEAANWLVVEMNYDTAIEKALAVVGEAAQADRAYLFKNHPHPITGKRAVSLQFEWYGSDLQPSIQDWQNQLYQSTELSRWYSVLSSGKSINELRRKLPVAERELLERQGIQSLLLVPLGLEDQFWGYLGLADCTQERYWSRHEESTLLTMAASISGAWQRQQVEEKIRYQALHDLLTGLPNRLLFNELLAKALANASRSQESLAVMFLDLDRFKVINDTLGHTLGDRLLQSVAQRLRDCLRSGDTVSRWGGDEFTILLPHISYIEEVTQAACRILKALEEVFHLDGHELYVSASLGIALLDHHSPDAEALIKHADAALYHAKDEGRNNYQFYTTSLSGKTPELLTLEKSLRYALEKQELKVYYQPRVNILTGQITGMEALLRWQHPEMGIVAPSIFIPIAEETGLIIPIGEWVLRTACMQNRAWQEAGLPPVQMAVNLSPKQFRQPTLLELVSAILAETGLAPEFLELEITESTAIEDIDFTRSVLENLQQMGVDIAIDDFGTGHSSLSRLQLLPLHNLKIDGSFIKALTTDSKVAHIVKAIVTLGRSLGLRLTAEGVEKQEELDFLKSINCQDVQGFLFHKPLSAEKATEILQGEKKHATL
notes: FHA-PAS-GAF-GGDEF-EAL protein, two C-terminal Strep-tags (pHTwinStrep), E. coli BL21(DE3), Strep-Tactin purified
Q: What does the source list for B1?
A: Km [2]: 37.2 µM; kcat [2]: 0.39 s⁻¹; Km [3]: 23.5 µM; kcat [3]: 1.26 s⁻¹

B2: CdgSH (Nostoc sp. PCC 7120 = FACHB-418; D530A/E531A) (protein)
chain: MPGNEWEKIRHILVVQDLQGQRTIPLQEATYSIGRHTSNAIVLHSRSVSRQHAILLRVTLPETDQCSFRIIDGNFKGQGSTNGLLVNGTRCFSHNLRHGDVINFGSHQAQAKYYAISNISEKAFFASADVEDLSTFLSELSQPVNPFQTLVVDPEFEGASETALARLASFPELIPNPIIETDLEGRVTYINPAASVKFPDLRELGKQHPILKDILNIAENPKINPFVREVTVGHAVYEQSVHNLPESDLIRTYIIRDVTEQKQAEAELHQRDRLLQAVAEAANWLVVEMNYDTAIEKALAVVGEAAQADRAYLFKNHPHPITGKRAVSLQFEWYGSDLQPSIQDWQNQLYQSTELSRWYSVLSSGKSINELRRKLPVAERELLERQGIQSLLLVPLGLEDQFWGYLGLADCTQERYWSRHEESTLLTMAASISGAWQRQQVEEKIRYQALHDLLTGLPNRLLFNELLAKALANASRSQESLAVMFLDLDRFKVINDTLGHTLGDRLLQSVAQRLRDCLRSGDTVSRWGGAAFTILLPHISYIEEVTQAACRILKALEEVFHLDGHELYVSASLGIALLDHHSPDAEALIKHADAALYHAKDEGRNNYQFYTTSLSGKTPELLTLEKSLRYALEKQELKVYYQPRVNILTGQITGMEALLRWQHPEMGIVAPSIFIPIAEETGLIIPIGEWVLRTACMQNRAWQEAGLPPVQMAVNLSPKQFRQPTLLELVSAILAETGLAPEFLELEITESTAIEDIDFTRSVLENLQQMGVDIAIDDFGTGHSSLSRLQLLPLHNLKIDGSFIKALTTDSKVAHIVKAIVTLGRSLGLRLTAEGVEKQEELDFLKSINCQDVQGFLFHKPLSAEKATEILQGEKKHATL
notes: as for B1
Q: For B2, which Km [3] is on record?
A: 31.0 µM

Q: And the kcat [3]?
A: 1.78 s⁻¹

B3: CdgSH (Nostoc sp. PCC 7120 = FACHB-418; E656A/L658A) (protein)
chain: MPGNEWEKIRHILVVQDLQGQRTIPLQEATYSIGRHTSNAIVLHSRSVSRQHAILLRVTLPETDQCSFRIIDGNFKGQGSTNGLLVNGTRCFSHNLRHGDVINFGSHQAQAKYYAISNISEKAFFASADVEDLSTFLSELSQPVNPFQTLVVDPEFEGASETALARLASFPELIPNPIIETDLEGRVTYINPAASVKFPDLRELGKQHPILKDILNIAENPKINPFVREVTVGHAVYEQSVHNLPESDLIRTYIIRDVTEQKQAEAELHQRDRLLQAVAEAANWLVVEMNYDTAIEKALAVVGEAAQADRAYLFKNHPHPITGKRAVSLQFEWYGSDLQPSIQDWQNQLYQSTELSRWYSVLSSGKSINELRRKLPVAERELLERQGIQSLLLVPLGLEDQFWGYLGLADCTQERYWSRHEESTLLTMAASISGAWQRQQVEEKIRYQALHDLLTGLPNRLLFNELLAKALANASRSQESLAVMFLDLDRFKVINDTLGHTLGDRLLQSVAQRLRDCLRSGDTVSRWGGDEFTILLPHISYIEEVTQAACRILKALEEVFHLDGHELYVSASLGIALLDHHSPDAEALIKHADAALYHAKDEGRNNYQFYTTSLSGKTPELLTLEKSLRYALEKQELKVYYQPRVNILTGQITGMAAALRWQHPEMGIVAPSIFIPIAEETGLIIPIGEWVLRTACMQNRAWQEAGLPPVQMAVNLSPKQFRQPTLLELVSAILAETGLAPEFLELEITESTAIEDIDFTRSVLENLQQMGVDIAIDDFGTGHSSLSRLQLLPLHNLKIDGSFIKALTTDSKVAHIVKAIVTLGRSLGLRLTAEGVEKQEELDFLKSINCQDVQGFLFHKPLSAEKATEILQGEKKHATL
notes: as for B1
Q: What does the source list for B3?
A: Km [2]: 34.8 µM; kcat [2]: 0.12 s⁻¹
